Test results reported in US9457062B2, “Chaperonin 10-induced immunomodulation” (CBIO LIMITED, priority 2005, dated 2016).

B1: IFNγ: recombinant mouse IFNγ (Chemicon), non-TLR agonist (protein, UniProt P01580 23-155, looked up)
Interferon gamma: HGTVIESLESLNNYFNSSGIDVEEKSLFLDIWRNWQKDGDMKILQSQIISFYLRLFEVLKDNQAISNNISVIESHLITTFFSNSKAKKDAFMSIAKFEVNNPQVQRQAFNELIRVVHQLLPESSLRKRKRSRC
B2: Hsp60: chaperonin 60, protein folding partner of Cpn10 (protein)
chain: AKDVKFGADARALMLQGVDLLADAVAVTMGPKGRTVIIEQSWGSPKVTKDGVTVAKSIDLKDKYKNIGAKLVQDVANNTNEEAGDGTTTATVLARSIAKEGFEKISKGANPVEIRRGVMLAVDAVIAELKKQSKPVTTPEEIAQVATISANGDKEIGNIISDAMKKVGRKGVITVKDGKTLNDELEIIEGMKFDRGYISPYFINTSKGQKCEFQDAYVLLSEKKISSIQSIVPALEIANAHRKPLVIIAEDVDGEALSTLVLNRLKVGLQVVAVKAPGFGDNRKNQLKDMAIATGGAVFGEEGLTLNLEDVQPHDLGKVGEVIVTKDDAMLLKGKGDKAQIEKRIQEIIEQLDVTTSEYEKEKLNERLAKLSDGVAVLKVGGTSDVEVNEKKDRVTDALNATRAAVEEGIVLGGGCALLRCIPALDSLTPANEDQKIGIEIIKRTLKIPAMTIAKNAGVEGSLIVEKIMQSSSEVGYDAMAGDFVNMVEKGIIDPTKVVRTALLDAAGVASLLTTAEVVVTEIPKEEKDPGMGAMGGMGGGMGGGMF

Columns and labels:
Cpn10 promoter = Cpn10 promoter luciferase reporter (pCAT/LUC-CPN) in RAW264.7 cells; type: cell-based, mouse; details: optimal agonist concentrations (FIG. 18H): IFNγ 1 ng/ml, IL-1β 1 ng/ml, TNF-α 100 ng/ml
From the text: Reagents. Recombinant human Cpn10 was produced to GMP specifications by BresaGen Limited (Adelaide, Aus) essentially as described previously (Johnson, B. 2005. J. Biol Chem 280:4037-4047). […] For FACS analysis, a cysteine residue was engineered onto the C-terminus of Cpn10 and labeled with AlexFluor647 (Invitrogen) according to manufacturer's instructions. […] TLR ligands and cytokines included: E. coli LPS (strain 055:B5, Sigma), E. coli ultra-pure LPS (0111:B4 Sigma), S. aureus LTA, B. subtilis LTA, S. aureus PGN, B. subtilis PGN, zymosan cell wall from S. cerevisae, poly(I:C), imiquimod R837, CpG ODN 1826 and ODN2216, GpC ODN1826 control, (all from Invivogen, San Diego, Calif.), recombinant mouse IFNγ, (Chemicon), IL-1β (PeproTech), and recombinant human TNF-α (Invivogen). Antibodies. Rabbit polyclonal antibodies were raised against Cpn10 and affinity purified at CBio. […] After 24 h cells were harvested and cell viability assessed by trypan blue dye exclusion. […] Cells were washed, harvested in Cell Culture Lysis Reagent (CCLR, Promega) and firefly luciferase signal measured using the Luciferase Assay System (Promega) and the Wallac Victor 2 Multilabel Counter (Perkin-Elmer). […] Cells were assessed for viability, pooled per condition (n=4), pelleted by centrifugation and resuspended in CCLR.

GM1 = test: FRET with GM1 (lipid rafts) on MonoMac 6 cells; type: binding, human; details: donor GM1
Protocol: (§1) Cell labeling for FRET. MonoMac 6 cells (a human monocytic cell line) were labeled with 100 μl of a mixture of donor conjugated antibody (Cy3) and acceptor conjugated antibody (Cy5). For labelling of Cpn10, an anti-Cpn10 rabbit polyclonal antibody was used. The cells were rinsed twice in PBS/0.02% BSA, prior to fixation with 4% formaldehyde for 15 min. The cells were fixed in order to prevent potential re-organisation of the proteins during the course of the experiment. Confocal imaging. Cells were imaged on a Carl Zeiss, Inc. LSM510 confocal microscope (with an Axiovert 200 fluorescent microscope) using a 1.4 NA 63× Zeiss objective. The images were analysed using LSM 2.5 image analysis software (Carl Zeiss, Inc.). Cy3 and Cy5 were detected using the appropriate filter sets. Using typical exposure times for image acquisition (less than 5 s), no fluorescence was observed from a Cy3-labelled specimen using the Cy5 filters, nor was Cy5 fluorescence detected using the Cy3 filter sets. FRET measurements. FRET is a non-invasive imaging technique used to determine molecular proximity. […]
In the present study, FRET was measured using a method as previously described (Kenworthy and Edidin (1998) Journal of Cell Biology 142: 69-84; Kenworthy and Edidin (1998) in Gelb, M. H. (Ed.) Methods in molecular Biology. Humana Press Inc, Totowa, N.J. pp 37-49). […]

CD14 = molecular target: T1, CD14 (Homo sapiens, UniProt P08571); test: FRET with CD14 on MonoMac 6 cells; type: binding
T1 construct: MonoMac 6 cells (a human monocytic cell line); endogenous in cells; host or cells: MonoMac 6
T1 sequence (P08571 20-345): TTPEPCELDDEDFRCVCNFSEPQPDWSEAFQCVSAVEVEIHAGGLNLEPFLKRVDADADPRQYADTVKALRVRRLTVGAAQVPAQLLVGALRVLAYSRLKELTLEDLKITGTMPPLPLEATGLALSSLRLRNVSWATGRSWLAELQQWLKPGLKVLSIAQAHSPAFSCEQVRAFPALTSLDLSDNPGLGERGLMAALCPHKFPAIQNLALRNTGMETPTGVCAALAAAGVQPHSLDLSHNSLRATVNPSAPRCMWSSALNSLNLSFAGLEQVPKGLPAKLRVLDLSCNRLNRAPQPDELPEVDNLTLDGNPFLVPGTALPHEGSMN
Protocol: as §1, with “used. […]” for “used. The cells were rinsed twice in PBS/0.02% BSA, prior to fixation with 4% formaldehyde for 15 min.”, “measurements. […] In the present study,” for “measurements.”, “FRET was measured using” for “FRET is”, “a method as previously described (Kenworthy and […] (1998) Journal of Cell Biology 142: 69-84; Kenworthy and […] (1998) in Gelb, M. H. (Ed.) Methods in” for “a non-invasive imaging technique used to determine”, “molecular Biology. Humana Press Inc, Totowa, N.J. pp 37-49). Briefly, samples were labeled with donor and acceptor conjugated antibodies, and energy transfer was detected as an increase in donor fluorescence (dequenching) after complete photobleaching of the acceptor molecule.” for “molecular proximity.”

TLR4 = molecular target: T2, TLR4 (Homo sapiens, UniProt O00206); test: FRET with TLR4 on MonoMac 6 cells; type: binding
T2 construct: endogenous in cells; host or cells: freshly isolated human monocytes; human monocyte-derived DC
Protocol: as §1, with “used. […]” for “used. The cells were rinsed twice in PBS/0.02% BSA, prior to fixation with 4% formaldehyde for 15 min.”, “measurements. […] In the present study,” for “measurements.”, “FRET was measured using” for “FRET is”, “a method as previously described (Kenworthy and […] (1998) Journal of Cell Biology 142: 69-84; Kenworthy and […] (1998) in Gelb, M. H. (Ed.) Methods in” for “a non-invasive imaging technique used to determine”, “molecular Biology. Humana Press Inc, Totowa, N.J. pp 37-49). Briefly, samples were labeled with donor and acceptor conjugated antibodies, and energy transfer was detected as an increase in donor fluorescence (dequenching) after complete photobleaching of the acceptor molecule.” for “molecular proximity.”

T2 sequence (O00206 24-839): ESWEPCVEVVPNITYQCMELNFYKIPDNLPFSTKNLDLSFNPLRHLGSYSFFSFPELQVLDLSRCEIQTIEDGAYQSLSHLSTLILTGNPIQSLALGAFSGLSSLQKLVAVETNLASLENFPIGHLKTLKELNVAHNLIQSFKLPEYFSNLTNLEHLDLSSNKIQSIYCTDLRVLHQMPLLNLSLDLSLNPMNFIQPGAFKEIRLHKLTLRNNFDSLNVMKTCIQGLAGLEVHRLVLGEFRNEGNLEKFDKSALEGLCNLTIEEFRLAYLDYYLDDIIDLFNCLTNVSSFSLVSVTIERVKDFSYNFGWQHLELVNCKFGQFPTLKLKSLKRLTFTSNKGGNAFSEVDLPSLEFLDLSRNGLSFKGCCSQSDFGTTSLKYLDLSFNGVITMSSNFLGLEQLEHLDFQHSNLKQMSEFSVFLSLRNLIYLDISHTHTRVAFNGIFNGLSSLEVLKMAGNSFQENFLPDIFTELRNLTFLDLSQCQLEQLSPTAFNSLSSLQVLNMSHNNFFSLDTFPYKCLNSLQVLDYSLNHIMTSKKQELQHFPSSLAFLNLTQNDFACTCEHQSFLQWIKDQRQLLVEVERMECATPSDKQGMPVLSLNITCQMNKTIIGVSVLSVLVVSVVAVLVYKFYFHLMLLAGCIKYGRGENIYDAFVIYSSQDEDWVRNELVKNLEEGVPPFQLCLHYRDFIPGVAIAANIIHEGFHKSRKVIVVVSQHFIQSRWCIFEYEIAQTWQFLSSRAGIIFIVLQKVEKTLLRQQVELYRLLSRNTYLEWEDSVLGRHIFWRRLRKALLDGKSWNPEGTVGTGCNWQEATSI

| Molecule | up-regulation of the Cpn10 promoter (Cpn10 promoter) | E ± ΔE (%) energy transfer efficiency (GM1; MM6 cells stimulated with LPS) [%] | E ± ΔE (%) energy transfer efficiency (GM1; Unstimulated MM6 cells) [%] | E ± ΔE (%) energy transfer efficiency (CD14; MM6 cells stimulated with LPS) [%] | E ± ΔE (%) energy transfer efficiency (CD14; Unstimulated MM6 cells) [%] | E ± ΔE (%) energy transfer efficiency (TLR4; MM6 cells stimulated with LPS) [%] | E ± ΔE (%) energy transfer efficiency (TLR4; Unstimulated MM6 cells) [%] |
| --- | --- | --- | --- | --- | --- | --- | --- |
| B1 | did not induce substantial up-regulation | – | – | – | – | – | – |
| B2 | – | 8 ± 2.0 | 6 ± 0.5 | 4 ± 2.0 | 6 ± 0.5 | 6 ± 1.0 | 5 ± 1.0 |
